Measurements reported in publication PMC6761829 (Nature structural & molecular biology, 2019).
Where no end group is shown, it is not given here.

B1: Full-length Drosophila melanogaster spastin with a Walker B mutation (E583Q) (enzyme, UniProt Q8I0P1 1-758, looked up)
chain: MVRTKNQSSSSSASSSSTKSPIKSSSGAGSSGGGLGGRQSTHRSSSASNVAAVVAGGSSAAGGGSSSNRRSPGSSPDGDDDTTTTDDLTPTTCSPRSGHHHSYGGYSSSVHKQNLYVVSFPIIFLFNVLRSLIYQLFCIFRYLYGASTKVIYRPHRRDCNIEIVVQNSSKEQQQSLNHPSELNREGDGQEQQLSNQPQRFRPIQPLEMAANRPGGGYSPGPGDPLLAKQKHHHRRAFEYISKALKIDEENEGHKELAIELYRKGIKELEDGIAVDCWSGRGDVWDRAQRLHDKMQTNLSMARDRLHFLALREQDLQMQRLSLKEKQKEEAQSKPQKTREPMLAGMTNEPMKLRVRSSGYGPKATTSAQPTASGRKLTIGSKRPVNLAVANKSQTLPRNLGSKTSVGAVQRQPAKTAATPPAVRRQFSSGRNTPPQRSRTPINNNGPSGSGASTPVVSVKGVEQKLVQLILDEIVEGGAKVEWTDIAGQDVAKQALQEMVILPSVRPELFTGLRAPAKGLLLFGPPGNGKTLLARAVATECSATFLNISAASLTSKYVGDGEKLVRALFAVARHMQPSIIFIDQVDSLLSERSSSEHEASRRLKTEFLVEFDGLPGNPDGDRIVVLAATNRPQELDEAALRRFTKRVYVSLPDEQTRELLLNRLLQKQGSPLDTEALRRLAKITDGYSGSDLTALAKDAALEPIRELNVEQVKCLDISAMRAITEQDFHSSLKRIRRSVAPQSLNSYEKWSQDYGDITI

Experiments:
[1] = molecular target: B1; experiment: AUC
AUC = molecular target: the molecule itself; experiment: AUC

Binder | binding result [1] | stoichiometry N (AUC)
Atto488-VGSEEEEEEEEEE [VGSEEEEEEEEEE peptide labeled with Atto488] | binds | –
B1 | – | 6
